Results: article PMC5507773

Target: LIMD1 (UniProt Q9UGP4)
Assay: co-IP of Xpr-LIMD1 with EYFP-AGO2
Details: reference: wild type; sites S387

- binding against the reference: weaker
Substance: AGO2 (from UniProt Q9UKV8) S387A
